“Also recorded” adds a separate entry of the source.
Test system: p27, GRP78, and Beclin-1
Experiment: Western blotting of downstream MDA-7/IL-24 signaling molecules in PC3-ML cells
Type: cell-based
Settings: western blot, vs untreated control
Source text: Western Blotting: Standard protocols were followed for Western blotting assays (24, 27). The primary antibodies used were pAkt, Akt, pGSK3β, GSK3β, NFATc1, cyclin D1 (Cell Signaling Technology, Danvers, Mass., USA) and EF1α (Abeam, Cambridge, United Kingdom). Appropriate secondary antibodies were purchased from Sigma-Aldrich, Inc. St. Louis, Mo., USA).
After purification, the quality of the purified protein was confirmed using anti-MDA-7 antibody by western blotting (FIG. 1B). To confirm biological activity, PC3-ML cells were treated with MDA-7/IL-24 protein, and anti-proliferative and potential molecular changes were evaluated by MTT assays and western blotting analyses, respectively (FIGS. 1C and 1D). […] Next, to evaluate the long-term effect of MDA-7/IL-24 on cell proliferation, colony formation (clonal) assays were performed in an assortment of PC cell lines.

B1: MDA-7/IL-24 protein: Recombinant His-tagged MDA-7/IL-24 protein purified on Ni-NTA from supernatant of IM-PHFA cells infected with Ad.5-His-mda-7 (protein)
chain: QEFHFGPCQVKGVVPQKLWEAFWAVKDTMQAQDNITSARLLQQEVLQNVSDAESCYLVHTLLEFYLKTVFKNYHNRTVEVRTLKSFSTLANNFVLIVSQLQPSQENEMFSIRDSAHRRFLLFRRAFKQLDVEAALTKALGEVDILLTWMQKFYKL
- levels of p27, GRP78, and Beclin-1: Significant increases; also recorded: up-regulation of expression

Reference: US20210187071A1, “COMPOSITIONS COMPRISING MDA-7/IL-24 PROTEIN AND METHODS OF USE” (VIRGINIA COMMONWEALTH UNIVERSITY, priority 2017, published 2021)
